Source: ChEMBL document CHEMBL4371014, “Novel Allosteric Ligands of γ-Aminobutyric Acid Transporter 1 (GAT1) by MS Based Screening of Pseudostatic Hydrazone Libraries” (J Med Chem, 2018)

Tests used:
[1] = compound: O=C(O)[C@H]1CNC[C@@H](CN/N=C/c2ccc(-c3cc(C(F)(F)F)cc(C(F)(F)F)c3)o2)C1; assay: (§1) Non-competitive inhibition of human GAT1 expressed in COS cells assessed as reduction in [2H6]GABA uptake by measuring [2H6]GABA Km(app) at 30 uM preincubated for 25 mins followed by [3H]GABA addition and measured after 4 mins by liquid scintillation counting method (reference value: 12 +/- 1.2 uM); type: cell-based
[2] = compound: O=C(O)[C@H]1CNC[C@@H](CN/N=C/c2ccc(-c3cccc4ccccc34)o2)C1; assay: as §1; type: cell-based
[3] = compound: O=C(O)[C@H]1CNC[C@@H](CN/N=C/c2ccc(-c3cc(C(F)(F)F)cc(C(F)(F)F)c3)o2)C1; assay: as §1, with “Vmax” for “Km(app)”, “570” for “12”, “53 amol/cell.min)” for “1.2 uM)”; type: cell-based
[4] = compound: O=C(O)[C@H]1CNC[C@@H](CN/N=C/c2ccc(-c3cccc4ccccc34)o2)C1; assay: as above; type: cell-based
[5] = compound: O=C(O)[C@H]1CNC[C@@H](CN/N=C/c2ccc(-c3cc(C(F)(F)F)cc(C(F)(F)F)c3)o2)C1; assay: (§2) Non-competitive inhibition of human GAT1 expressed in COS cells assessed as reduction in [2H6]GABA uptake by measuring [2H6]GABA Km(app) at 10 uM preincubated for 25 mins followed by [3H]GABA addition and measured after 4 mins by liquid scintillation counting method (reference value: 12 +/- 1.2 uM); type: cell-based
[6] = compound: O=C(O)[C@H]1CNC[C@@H](CN/N=C/c2ccc(-c3cccc4ccccc34)o2)C1; assay: as §2; type: cell-based
[7] = substrate: Cc1ccsc1C(=CCCN1CCC[C@@H](C(=O)O)C1)c1sccc1C; details: Homo sapiens; 300 nM
[8] = substrate: Cc1ccsc1C(=CCCN1CCC[C@@H](C(=O)O)C1)c1sccc1C; details: Homo sapiens; 100 nM
[9] = substrate: Cc1ccsc1C(=CCCN1CCC[C@@H](C(=O)O)C1)c1sccc1C; details: Homo sapiens; 300 nM; remark: listed apart in the source
Description: Mixed-type inhibition of human GAT1 expressed in COS cells assessed as reduction in [2H6]GABA uptake by measuring [2H6]GABA Vmax at 300 nM preincubated for 25 mins followed by [3H]GABA addition and measured after 4 mins by liquid scintillation counting method

[10] = compound: O=C(O)[C@H]1CNC[C@@H](CN/N=C/c2ccc(-c3cc(C(F)(F)F)cc(C(F)(F)F)c3)o2)C1; assay: as §2, with “Vmax” for “Km(app)”, “570” for “12”, “53 amol/cell.min)” for “1.2 uM)”; type: cell-based
[11] = compound: O=C(O)[C@H]1CNC[C@@H](CN/N=C/c2ccc(-c3cccc4ccccc34)o2)C1; assay: as above; type: cell-based
[12] = substrate: Cc1ccsc1C(=CCCN1CCC[C@@H](C(=O)O)C1)c1sccc1C; details: Homo sapiens; 100 nM; remark: listed apart in the source

B1: Sodium- and chloride-dependent GABA transporter 1 (Homo sapiens), P30531 (protein)
chain: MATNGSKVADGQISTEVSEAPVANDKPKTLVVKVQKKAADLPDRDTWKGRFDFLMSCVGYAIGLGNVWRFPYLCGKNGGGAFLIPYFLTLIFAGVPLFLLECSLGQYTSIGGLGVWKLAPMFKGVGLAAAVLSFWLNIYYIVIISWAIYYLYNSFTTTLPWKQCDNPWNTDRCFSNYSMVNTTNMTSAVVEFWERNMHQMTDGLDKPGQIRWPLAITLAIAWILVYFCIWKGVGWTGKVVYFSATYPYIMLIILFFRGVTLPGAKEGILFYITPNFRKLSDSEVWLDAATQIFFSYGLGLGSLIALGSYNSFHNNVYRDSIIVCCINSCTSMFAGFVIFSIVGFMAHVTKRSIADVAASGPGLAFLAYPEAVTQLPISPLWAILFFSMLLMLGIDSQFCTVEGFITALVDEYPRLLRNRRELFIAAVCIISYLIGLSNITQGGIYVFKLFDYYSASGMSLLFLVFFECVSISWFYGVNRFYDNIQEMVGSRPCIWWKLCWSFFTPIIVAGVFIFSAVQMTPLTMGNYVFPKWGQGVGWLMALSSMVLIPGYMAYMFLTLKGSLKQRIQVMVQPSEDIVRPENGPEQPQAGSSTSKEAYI
B1 was tested, and the Km [1] was 5.1 µM, the Km [2] was 5.7 µM and the Vmax (amol/cell.min) [3] was 183. For the same protein, the Vmax (amol/cell.min) [4] was 165, the Km [5] was 8.2 µM and the Km [6] was 10.1 µM. The Km [7] was 29.4 µM, the Vmax (amol/cell.min) [8] was 491 and the Vmax (amol/cell.min) [9] was 419. For the same protein, the Vmax (amol/cell.min) [10] was 341, the Vmax (amol/cell.min) [11] was 332 and the Km [12] was 19.7 µM.
